Among the data in paper PMC7073468, “Small RNA‐binding protein RapZ mediates cell envelope precursor sensing and signaling in Escherichia coli” (The EMBO Journal, 2020) are Kd, koff and kon values, retold here.

One assay concerns the target RapZ (Escherichia coli, UniProt P0A894). The experiment in a line: SPR (Biacore, single-cycle kinetics); also co-purification detected by HILIC-MS/MS. Format: binding. Background: In SPR one partner is held on a chip, and binding of the other changes the refractive index at the surface.
Assay [1] addresses T1, Strep-RapZ (N-terminally Strep-tagged RapZ) (Escherichia coli, UniProt P0A894 1-284).
T1 construct: it is not measured here; also called YhbJ; source: purified recombinant protein (procedure in the Appendix Supplementary Methods); not shown: Strep, N-terminal, kept
T1 sequence (looked up): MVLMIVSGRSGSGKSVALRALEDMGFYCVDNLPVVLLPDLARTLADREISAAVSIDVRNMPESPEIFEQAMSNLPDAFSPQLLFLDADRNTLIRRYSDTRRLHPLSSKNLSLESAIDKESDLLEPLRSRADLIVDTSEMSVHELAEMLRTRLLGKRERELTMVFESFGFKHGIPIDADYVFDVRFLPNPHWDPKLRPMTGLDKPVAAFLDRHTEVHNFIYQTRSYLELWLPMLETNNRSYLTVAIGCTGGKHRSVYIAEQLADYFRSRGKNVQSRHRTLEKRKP
The experiment in a line: SPR; Biacore T200, 25°C; Strep-RapZ (200–400 RU) captured on a CM5 chip coated with Strep-Tactin XT; QseE-His10 or QseF-His10 injected at 10 nM, 50 nM, 2 × 100 nM, 250 nM, 500 nM and 1,000 nM, multicycle; HBS-EP buffer (10 mM HEPES pH 7.4, 150 mM NaCl, 3 mM EDTA, 0.005% P20); overall affinities. To be noted: both partners purified.

The term Kd denotes the constant that tells how readily two partners part at equilibrium. For the molecule `N[C@H]1C(O)O[C@H](COP(=O)(O)O)[C@@H](O)[C@@H]1O` (stereo partly shown) [GlcN6P], at RapZ, binding was characterised by a dissociation constant (Kd) of 0.186 µM.

B1: QseE’-His10 (soluble cytoplasmic C-terminal part of kinase QseE, aa 196–475, with the HAMP and transmitter domains) (domain or fragment, Escherichia coli, UniProt P52101 196-475, looked up)
chain: MIIGPVKNIERMINRLGEGRSLGNSVSFSGPSELRSVGQRILWLSERLSWLESQRHQFLRHLSHELKTPLASMREGTELLADQVVGPLTPEQKEVVSILDSSSRNLQKLIEQLLDYNRKQADSAVELENVELAPLVETVVSAHSLPARAKMMHTDVDLKATACLAEPMLLMSVLDNLYSNAVHYGAESGNICLRSSLHGARVYIDVINTGTPIPQEERAMIFEPFFQGSHQRKGAVKGSGLGLSIARDCIRRMQGELYLVDESGQDVCFRIELPSSKNTK
notes: Histidine kinase QseE (a.k.a. GlrK, YfhK) of Escherichia coli, cytoplasmic part aa 196-475 (HAMP and transmitter domains); also called His10-tagged QseE’; GlrK; source: purified recombinant protein (procedure in the Appendix Supplementary Methods)
Broadly, the koff is the first-order rate constant of dissociation. A low value points to a long-lived complex. The term kon denotes a measure of how fast the partners come together. In assay [1], B1 showed a Kd of 12 µM, a dissociation rate constant (koff) of 0.054 s⁻¹ and an on-rate (kon) of 4500 M⁻¹ s⁻¹.
